From PMC4028238

What follows are sequences tested on Influenza A virus hemagglutinin (whole virus as assayed) (Influenza A virus H3N2 A/Texas/1977 (A/Texas/1/77)) (assay: competition ELISA). Settings: 5' PEG200, PBS, room temperature, […] (0.5-500 nM) […] (5 nM).

Sequence | relative binding affinity (IC50 ratio vs BV02) (IC50(BV02)/IC50)
ATTAACCCTCACTAAAGGGCTGAGTCTCAAAACCGCAATACACTGGTTGTATGGTCGAATAAGTTAA [BV32] | 1.33

Same assay, conditions: * marks (phosphorothioate) after nt 1,2,3, 3' inverted dT, PBS, room temperature, […] (0.5-500 nM) […] (5 nM)

Sequence | relative binding affinity (IC50 ratio vs BV02) (IC50(BV02)/IC50)
ATTAACCCTCACTAAAGGGCTGAGTCTCAAAACCGCAATACACTGGTTGTATGGTCGAATAAGTTAA [BV29] | 6.7

Same assay, conditions: * marks (phosphorothioate) after nt 1,2,3 and the last 3 linkages, PBS, room temperature, […] (0.5-500 nM) […] (5 nM)

Sequence | relative binding affinity (IC50 ratio vs BV02) (IC50(BV02)/IC50)
ATTAACCCTCACTAAAGGGCTGAGTCTCAAAACCGCAATACACTGGTTGTATGGTCGAATAAGTTAA [BV28] | 1.36

Same assay, conditions: * marks (phosphorothioate): A*T*T*AACC*CTCACTAAAGGG*CTGAGTC*TCAAAACCG*CAATACACTG*GTTGTATG*GTCGAATAAGT*T*A*A, PBS, room temperature, […] (0.5-500 nM) […] (5 nM)

Sequence | relative binding affinity (IC50 ratio vs BV02) (IC50(BV02)/IC50)
ATTAACCCTCACTAAAGGGCTGAGTCTCAAAACCGCAATACACTGGTTGTATGGTCGAATAAGTTAA [BV31] | 7.51

Same assay, conditions: PBS, room temperature, […] (0.5-500 nM) […] (5 nM)

Sequence | relative binding affinity (IC50 ratio vs BV02) (IC50(BV02)/IC50) | IC50
CCCCCCCCCCCCCCCCCGCGCTGAGTCCCCCCCCCCCCCCCCCCCACTCAGCGCG [BV35c] | 1.16 | 
TCTCAGCCCCCGCTGAGTCAAAGCGCACCCCCCCCCCCCCCCCCCCTGCGCTTAA [BV37f] | 0.495 | 
TCTCAGCCCCCGCTGAGTCAAAGCGCACCCCCCCCCCCCCCCCTGCGCTTAA [BV37e] | 0.995 | 
GGCTGAGTCAAACCGCCTAACACTGGTACAATGGCGGTTAAGTT [BV27m] | 0.012 | 
AATTAACCCTCACTAAAGGGCTGAGTCTCAAAACGTTTTGAGACTCAGCCCTTTAGTGAGGGTTAATT [BV11] | 0.124 | 
AATTAACCCTCACTAAAGGGCTGAGTCTCAAAACCGCAATACACTCAGCCCTTTAGTGAGGGTTAATT [BV19] | 1.34 | 
TCATTCTCAGTAAAGGGCTGAGTCAAACCGCAATACACTGGTAAAAAGTGCGGTTAGCGAG [BV27o] | 0.116 | 
AACGCTCACTACCCCCCCCCCAACCCCCCCCCCAACCCCCCCCCCAGTGAGCGTT [BV45b] | 15.1 | 
TCCTCAGCAAAATAGCGGGGCTGAGTCTCAAACCGCAATACACTGGTAAAAAGTGCGGTTA [BV37c] | 7.56 | 
AACGCTCACTCCCCCAAGAACCCCCCCCCCATGCACCCCCCCCCCAGTGAGCGTT [BV45e] | 11.4 | 
GGCTCACTAAAGGGCTGAGTCTCAAAACCGCAATACACTCAGCCCTTTAGTGAGGGTTAATTTTAAAGG [BV19c] | 0.086 | 
AATTAACCCTCACTAAAGCCGACTCACTCAAAACCGCAATACACTCAGCCCTTTAGTGAGGGTTAATT [BV19b] | 1.26 | 
AATTAACCCTCCTAAAGGGTCTGAGTCTCAAAACCGCAATACACTCAGCCCTTTAGTGAGGGTTAATT [BV19l] | 0.004 | 
AACGCTCACTCCCAAGAAGAAGAACCCCCCCCCCCCCCCCAGTGAGCGTT [BV43b] | 8.01 | 
TCCTCAGTAAAGGGCTGAGTCAAACCGCAATACACTGGTAAAAAGTGCGGTTAAG [BV27h] | 0.092 | 
AATTAAGCCTGACTTAAGGGGTGAGTCTCAAAACCGCAATACACTCAGCCCTTTAGTGAGGGTTAATT [BV19j] | 0.071 | 
TCCTCAGTAAAATAGCGGGGCTGAGTCAAACCGCAATACACTGGTAAAAAGTGCGGTTAAG [BV27n] | 0.151 | 
GGTAGTTATAGTATATGGAAGGGGCCCCCCCCCCCCCCCCGTGTCGTATGG [C7C] | 15.5 | 
AACGCTCACTCCCCCCCCCCCCCCCAAGAACCCCCCCCCCCCCCCAGTGAGCGTT [BV35s] | 7.45 | 
AATTAACCCTCACTAAAGGGCTGAGTCTCAAAACCGCAATACACTGGTTGTATGTTAATTGGGAGTGA [BV18] | 7.26 | 

Sequence | relative binding affinity (IC50 ratio vs BV02) (IC50(BV02)/IC50) | IC50
GCTGAGTCTCAAAACCGCAATACACTGGTT [BV26] | 0.792 | 
AACGCTCACTCCCCCAAGAACCCCCCCCCCCCTCCCCCCCCCCCCAGTGAGCGTT [BV45c] | 11.7 | 
CTCCTCCTCCTCCTCCTCCTCCTCCTCCTC [BV24a] | 0.08 | 
AATTAACCCTCACTAAAGGGCTCTCACTCAAAACCGCAATACACTCAGCCCTTTAGTGAGGGTTAATT [BV19a] | 0.574 | 
TCCTCAGCAAAATAGCGGGGCTGAGTCAAACCGCAATACACTGGTAAAAAGTGCGGTTAAG [BV37b] | 1 | 
AACGCTCACTCCCCCCCCCCCCCCCCCACCCCCCCCCCCCCCCCCAGTGAGCGTT [BV35p] | 9.88 | 
AAATAAGCCTGACTTAACGGGTGACTCTCAAAACCGCAATACACTCAGCCCTTTAGTGAGGGTTAATT [BV19k] | 0.932 | 
GTAAATACCTCTGAAATAATATCTCCATGACAGAGTAAGTCCATGAGAACTGACGATGCAAGTCTGTC [S3] | 0.7 | 
AATTAACGCTCACTAAAGCCCCACCCACCCACCCACCCACCCACCCACCCCTTTAGTGAGCGTTAATT [BV36b] | 0.611 | 
GTTTTGAGACTCAGCCCGGGCTGAGTCTCAAAACCGCAATACACTGGTTGTACAACCAGTGTATTGCG [BV13] | 0.084 | 
TCCTCAGTAAAGGGCTGAGTCAAAACCGCAATACACTGGTAAAAAGTGCGGTTAG [BV27i] | 0.065 | 
AACGCTCACTCCCCCCCCACCCCCCCCACCCCCCCCACCCCCCCCAGTGAGCGTT [BV35n] | 7.23 | 
AATTAACCCTCACTAAAGGGCTGAGTCTCAAAACCGCAATACACTGGTTGTACAACCAGTGTATTGCG [BV14] | 1.33 | 
GTCACTAAAGGGCTGAGTCAAACCGCAATACACTGGTTGTATGGTCGGTTAAGTT [BV27f] | 0.75 | 
AATTAACCCTCACTAAAGGGCTGAGTCTCAAAACCGCAATACACTGGTTGTATGGTCGAATAAGTTAA [BV02] | 1 | 55 nM
GGTAGTTATAGTATATGGAAGGGGGTGTCGTATGG [C7-35M] | 0.549 | 
AACCCTCACTCTCAAAACCGCAATACAGTGAGGGTT [BV19h] | 0.016 | 
AACGCTCACTCCCCCCCCCCCCCCAAGAAGAACCCCCCCCCCCCCAGTGAGCGTT [BV42b] | 14.9 | 
AACGCTCACTCCCCCAAGAACCCCCCCCCCCTGACCCCCCCCCCCAGTGAGCGTT [BV45d] | 10.7 | 
CTCACTAAAGCGCTGAGTCCCCCCCCCCCCCCCCCCCACTCAGCGCTTTAGTGAG [BV35] | 1.01 | 

Sequence | relative binding affinity (IC50 ratio vs BV02) (IC50(BV02)/IC50) | IC50
AACGCTCACTCCCCCACCCCCCCACCCCCCCACCCCCCCACCCCCAGTGAGCGTT [BV35m] | 6.54 | 
CCCCCCCCCGCGCTGAGTCCCCCCCCCCCCCCCCCCCACTCAGCGCGCCCCCCCC [BV35b] | 0.938 | 
GTCACTAAAGGGCTGAGTCAAACCGCCATACACTGGTTGTATGGCGGTTAAGTT [BV27j] | 0.089 | 
AACGCTCACTAAACCCCCCCCCACCCCCCCCCACCCCCCCCCAAAAGTGAGCGTT [BV45a] | 12.6 | 
TCATTCTCAGTAAAGGGCTGAGAATTCAAACCGCAATACACTGGTAAAAAGTGCGGTTAAG [BV27p] | 0.133 | 
AACGCTCACTCCCCCCCCCCCCCCCCCCCAGTGAGCGTT [BV35g] | 0.639 | 
TCCTCAGTAAAGGGCTGAGAAACCGCAATACACTGGTAAAAAGTGCGGTTAAGTT [BV27g] | 0.093 | 
CTCACTAAAGGGCTGAGTCAAACCGCAATACACTGGTTGTATGGTCGGTTAAGTT [BV27c] | 0.771 | 
AGATAAATGTCCGGGTTCGCTTCACTGATCAAACATAGACAGGTATAATTACTGCCTGAAGAAAATCC [S2] | 1 | 
AATTAACCCTCACTAAAGGGCTGATGCGGAATAAGTTAAAACCGCAGGTATACACTGGTTGTATCGAA [BV02a] | 0.946 | 
CTCACTAAAGGGCTGAGTCTCAAAACCGCAATACACTCAGCCCTTTAGTGAG [BV19g] | 0.132 | 
AACGCTCACTAACCCCCCCCCCACCCCCCCCCCACCCCCCCCCCAAGTGAGCGTT [BV45] | 14.2 | 
CTCACTAAAGGGCTGAGTCAAACCGCAATACACTGGTTGTATGGTCGAATAAGTT [BV27] | 0.116 | 
AACGCTCACTCCCCCCCCCCCACCCCCCCCCCCACCCCCCCCCCCAGTGAGCGTT [BV35o] | 9.92 | 
AATTAACCCTGACTAAAGGGGTGAGTCTCAAAACCGCAATACACTCAGCCCTTTAGTGAGGGTTAATT [BV19i] | 0.071 | 
AACCCTCACTCCGACTCACTCAAAACCGCAATACACTCAGCCAGTGAGGGTT [BV19f] | 0.131 | 
TTCCTCAGCAAAATAGCGGGGCTGAGCAACCGCAATACACTGGTAAAAAGTGCGGTTAAGA [BV37a] | 0.874 | 
GAAATAACCTCTGATAAAAAATTTCTCCATAGCGAAGTAAGTCCATAAGGAATGCCGATTCGGCTTGC [S1] | 1.1 | 
CACCACCACCACCACCACCACCACCACCAC [BV24b] | 0.05 | 
